According to PMC3057972, “BAG3 Directly Interacts with Mutated alphaB-Crystallin to Suppress Its Aggregation and Toxicity” (PLoS ONE, 2011):
Numbering of substitutions follows the chain as printed. Names may count otherwise.

B1: peptide corresponding to aa 200–213 of BAG3 (peptide, UniProt O95817 200-213, looked up)
peptide: QLPRGYISIPVIHE
notes: BAG3, human, amino acids 200–213; source: peptide, 'generated'
B2: peptide corresponding to aa 87–101 of BAG3 (peptide, UniProt O95817 87-101, looked up)
peptide: PQLRPGYIPIPVLHE
notes: BAG3, human, amino acids 87–101; source: peptide, 'generated'
B3: purified αB-crystallin wild type (from E. coli) (natural protein, human, UniProt P02511 1-175, looked up)
chain: MDIAIHHPWIRRPFFPFHSPSRLFDQFFGEHLLESDLFPTSTSLSPFYLRPPSFLRAPSWFDTGLSEMRLEKDRFSVNLDVKHFSPEELKVKVLGDVIEVHGKHEERQDEHGFISREFHRKYRIPADVDPLTITSSLSSDGVLTVNGPRKQVSGPERTIPITREEKPAVTAAPKK
notes: αB-crystallin, human, wild type; probably made as a GST fusion from pGEX-6P-1 with the GST removed (it is pulled down by GST-BAG3 on GSH beads); also called WT; source: E. coli, purified
B4: GST-αB-crystallin wild type (natural protein, human, UniProt P02511 1-175, looked up)
chain: B3 chain
notes: αB-crystallin, human, wild type, cDNA subcloned into pGEX-6P-1; also called GST-fused αB-crystallin wild type (WT); GST fusion αB-crystallin; source: E. coli BL21, purified (glutathione-Sepharose beads)
B5: GST-αB-crystallin R120G (natural protein, human, UniProt P02511 1-175, looked up)
chain: B3 chain with R120G
notes: αB-crystallin, human, mutant R120G found in myofibrillar myopathy patients, cDNA subcloned into pGEX-6P-1; also called GST R120GαB-crystallin; GST-fused αB-crystallin mutant (R120G); source: E. coli BL21, purified (glutathione-Sepharose beads)
B6: purified αB-crystallin R120G (from E. coli) (natural protein, human, UniProt P02511 1-175, looked up)
chain: B3 chain with R120G
notes: αB-crystallin, human, mutant R120G found in myofibrillar myopathy patients; probably made as a GST fusion from pGEX-6P-1 with the GST removed; also called R120G αB-crystallin; mutant (R120G); source: E. coli, purified

Legend:
Details in all cases: both partners purified
[1] = biological target: B3; assay: pull-down; competition: purified GST-BAG3 incubated with purified αB-crystallin in the presence or absence of peptides aa 87–101 or 200–213 of BAG3; precipitated with GSH beads; immunoblot with anti-αB-crystallin antibody
GST-BAG3 [2] = biological target: T1, GST-BAG3 (human, UniProt O95817 1-575); assay: as above
T1 construct: BAG3, human, cDNA subcloned into pGEX-6P-1; also called GST-fused BAG3; GST protein fused to BAG3; source: E. coli BL21, purified (glutathione-Sepharose beads)
T1 sequence (O95817 whole entry, the tested form may be a part): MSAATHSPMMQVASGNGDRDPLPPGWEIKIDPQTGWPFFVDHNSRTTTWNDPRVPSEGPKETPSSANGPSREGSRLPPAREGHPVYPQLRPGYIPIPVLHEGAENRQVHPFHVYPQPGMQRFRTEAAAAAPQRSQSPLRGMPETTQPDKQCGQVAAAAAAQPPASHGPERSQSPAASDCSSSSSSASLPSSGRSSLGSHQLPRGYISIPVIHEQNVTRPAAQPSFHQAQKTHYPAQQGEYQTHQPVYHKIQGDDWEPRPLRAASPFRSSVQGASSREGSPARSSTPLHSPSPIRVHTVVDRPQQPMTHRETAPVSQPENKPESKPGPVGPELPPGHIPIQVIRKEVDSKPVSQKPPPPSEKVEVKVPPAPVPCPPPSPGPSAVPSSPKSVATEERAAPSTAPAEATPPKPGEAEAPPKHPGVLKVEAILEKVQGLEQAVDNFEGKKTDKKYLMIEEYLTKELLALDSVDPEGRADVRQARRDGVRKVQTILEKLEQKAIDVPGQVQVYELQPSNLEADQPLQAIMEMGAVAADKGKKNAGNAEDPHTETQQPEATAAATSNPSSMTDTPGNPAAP

[3] = biological target: T2, purified BAG3 (from E. coli) (human, UniProt O95817 1-575); assay: pull-down; purified GST-fused αB-crystallin (WT or R120G) mixed with purified BAG3, pulled down with glutathione sepharose beads; immunoblot with anti-BAG3 antibody
T2 construct: BAG3, human; probably made as GST-BAG3 from pGEX-6P-1 with the GST removed (it is pulled down by GST-αB-crystallin on glutathione beads); source: E. coli BL21, purified
T2 sequence (O95817 whole entry, the tested form may be a part): as above

GST-BAG3 [4] = biological target: T1, GST-BAG3; assay: pull-down; purified GST-BAG3 incubated with purified αB-crystallin in immunoprecipitation buffer, precipitated with glutathione-Sepharose beads; immunoblot with anti-αB-crystallin antibody

B1
binding result [1]: binds

B2
binding result [1]: binds

B3
binding result (GST-BAG3 [2]): binds

B4
binding result [3]: binds

B5
binding result [3]: binds

B6
binding result (GST-BAG3 [4]): binds
